System: occludin
Assay: Western blot of occludin in siRNA transfected PHK
Format: cell-based, human
Conditions: 48 h
Procedure: PHK were lysed on ice in RIPA lysis buffer (20 mM Tris, 50 mM NaCl, 2 mM EDTA, 2 mM EGTA, 1% sodium deoxycholate, 1% TX-100, and 2% SDS, pH 7.4), with 1:100 Protease Inhibitor Cocktail (Sigma), 1:100 Phosphatase Inhibitor Cocktail ([…] for 30 min at 4° C. The samples were heated at 95° C. for 10 min and then centrifuged at 14,000 rpm for 15 min. Forty μg of protein, determined by BCA (Pierce) in NuPage LDS Sample Buffer (Invitrogen) was applied to 4-12% NuPage Bis-Tris gels (Invitrogen). Electrophoresis was performed under reducing conditions with MES SDS Buffer (Invitrogen). Membranes were incubated in blotting solution (5% non-fat dry milk in PBS+0.05% Tween 20) at RT for 1 h and then incubated with primary antibodies; claudin-1 (JAY.8; Zymed), occludin (OC/3F10; Zymed) and GAPDH (FL-355; Santa Cruz). An HRP-linked secondary antibody (GE Healthcare) was used with ECL (GE Healthcare) to visualize bands by autoradiography with Kodak BioMax MR film. The pixel intensity of each band was estimated with Image J.
PHK were plated on glass coverslips at 2-3×10^5 cells/well in a 6-well plate or at 2-3×10^4 cells/filter in Transwell insert (Costar; PET membrane, 0.4 μm pore size, 6.5 mm insert) in Keratinocyte-SFM without antibiotics. […]

B1: CLDN1 siRNA: claudin-1 siRNA (h), Santa Cruz; a pool of 3 separate strands, SEQ ID NO: 10-15 (nucleic acid)
chain 1: UACAUAGGCAUAGUUCAUGNN
chain 2: CAUGAACUAUGCCUAUGUANN
chain 3: AACGUAUGCAGUUAAUUCCNN
chain 4: GGAAUUAACUGCAUACGUUNN
chain 5: UGAAGAUCUAUGUAUGUGGNN
chain 6: CCACAUACAUAGAUCUUCANN
modifications: chemistry not given here
- occludin protein by Western blot: No change

— patent US20130046257A1, “METHODS OF USING AGENTS THAT MODULATE CLAUDIN EXPRESSION” (priority 2010, published 2013)
